Laboratory results published in patent publication US20180273587A1 (AILERON THERAPEUTICS, published 2018).
Positions of bridges follow the written chain, without caps; N, C: chain ends. Non-standard residues stand in square brackets, D forms with d. 2Nal = N[C@@H](Cc1ccc2ccccc2c1)C(=O)O; hPhe = N[C@@H](CCc1ccccc1)C(=O)O; R8 = C=CCCCCCC[C@@](C)(N)C(=O)O; S5 = C=CCCC[C@](C)(N)C(=O)O

Legend:
Assay in all cases: Ki; method not stated; unit not printed (nM per Table 6)
[1] = target: T1, MCL-1 (UniProt Q07820 172-327, limits assumed)
T1 construct: Target of the Ki columns; also called Myeloid cell leukemia 1

[2] = target: T2, BCL-XL (UniProt Q07817 1-209)
T2 construct: Target of the Ki columns

[3] = target: T3, BCL-2 (UniProt P10415 1-217, limits assumed)
T3 construct: Target of the Ki columns
T3 sequence (P10415 1-217 limits assumed): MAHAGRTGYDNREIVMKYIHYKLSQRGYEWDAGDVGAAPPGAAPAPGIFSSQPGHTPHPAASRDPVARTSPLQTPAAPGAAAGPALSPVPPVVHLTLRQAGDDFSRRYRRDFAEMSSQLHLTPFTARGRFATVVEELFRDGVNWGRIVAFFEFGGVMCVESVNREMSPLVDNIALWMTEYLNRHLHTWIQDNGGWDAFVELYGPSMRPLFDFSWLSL

T2 sequence (Q07817 1-209): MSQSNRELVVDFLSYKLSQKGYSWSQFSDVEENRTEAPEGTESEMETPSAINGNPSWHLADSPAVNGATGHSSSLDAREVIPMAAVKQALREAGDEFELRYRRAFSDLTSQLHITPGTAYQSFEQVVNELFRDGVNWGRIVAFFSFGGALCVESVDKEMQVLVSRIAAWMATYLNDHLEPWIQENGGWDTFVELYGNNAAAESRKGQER
T1 sequence (Q07820 172-327 limits assumed): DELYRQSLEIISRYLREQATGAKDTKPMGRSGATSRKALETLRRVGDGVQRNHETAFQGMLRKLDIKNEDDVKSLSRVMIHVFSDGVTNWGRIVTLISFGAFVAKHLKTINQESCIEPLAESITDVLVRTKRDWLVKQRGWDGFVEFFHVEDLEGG

Ki [1] [nM]	Ki [2] [nM]	Ki [3] [nM]	Binder
10.2	71.8	126	Ac-ILIAAALR[R8]IGDAFN[S5]YYA-NH2 (staple 9-16; SMILES CC[C@H](C)[C@H](NC(C)=O)C(=O)N[C@@H](CC(C)C)C(=O)N[C@H](C(=O)N[C@@H](C)C(=O)N[C@@H](C)C(=O)N[C@@H](C)C(=O)N[C@@H](CC(C)C)C(=O)N[C@@H](CCCNC(=N)N)C(=O)N[C@]1(C)CCCCCCC=CCCC[C@@](C)(C(=O)N[C@@H](Cc2ccc(O)cc2)C(=O)N[C@@H](Cc2ccc(O)cc2)C(=O)N[C@@H](C)C(N)=O)NC(=O)[C@H](CC(N)=O)NC(=O)[C@H](Cc2ccccc2)NC(=O)[C@H](C)NC(=O)[C@H](CC(=O)O)NC(=O)CNC(=O)[C@H]([C@@H](C)CC)NC1=O)[C@@H](C)CC) [SEQ ID NO: 1730]
10.2	45.3	95.9	Ac-IFIAAALR[R8]IGDAFN[S5]YYA-NH2 (staple 9-16; SMILES CC[C@H](C)[C@H](NC(C)=O)C(=O)N[C@@H](Cc1ccccc1)C(=O)N[C@H](C(=O)N[C@@H](C)C(=O)N[C@@H](C)C(=O)N[C@@H](C)C(=O)N[C@@H](CC(C)C)C(=O)N[C@@H](CCCNC(=N)N)C(=O)N[C@]1(C)CCCCCCC=CCCC[C@@](C)(C(=O)N[C@@H](Cc2ccc(O)cc2)C(=O)N[C@@H](Cc2ccc(O)cc2)C(=O)N[C@@H](C)C(N)=O)NC(=O)[C@H](CC(N)=O)NC(=O)[C@H](Cc2ccccc2)NC(=O)[C@H](C)NC(=O)[C@H](CC(=O)O)NC(=O)CNC(=O)[C@H]([C@@H](C)CC)NC1=O)[C@@H](C)CC) [SEQ ID NO: 1731]
13.7	55.3	144	Ac-I[2Nal]IAAALR[R8]IGDAFN[S5]YYA-NH2 (staple 9-16; SMILES CC[C@H](C)[C@H](NC(C)=O)C(=O)N[C@@H](Cc1ccc2ccccc2c1)C(=O)N[C@H](C(=O)N[C@@H](C)C(=O)N[C@@H](C)C(=O)N[C@@H](C)C(=O)N[C@@H](CC(C)C)C(=O)N[C@@H](CCCNC(=N)N)C(=O)N[C@]1(C)CCCCCCC=CCCC[C@@](C)(C(=O)N[C@@H](Cc2ccc(O)cc2)C(=O)N[C@@H](Cc2ccc(O)cc2)C(=O)N[C@@H](C)C(N)=O)NC(=O)[C@H](CC(N)=O)NC(=O)[C@H](Cc2ccccc2)NC(=O)[C@H](C)NC(=O)[C@H](CC(=O)O)NC(=O)CNC(=O)[C@H]([C@@H](C)CC)NC1=O)[C@@H](C)CC, Row prints Ac-I2NalIAAALR$r8IGDAFN$YYA-NH2) [SEQ ID NO: 1732]
2.7	16.6	38.9	Ac-IWIAQALR[R8]IGDA[hPhe]N[S5]YYA-NH2 (staple 9-16; SMILES CC[C@H](C)[C@H](NC(C)=O)C(=O)N[C@@H](Cc1c[nH]c2ccccc12)C(=O)N[C@H](C(=O)N[C@@H](C)C(=O)N[C@@H](CCC(N)=O)C(=O)N[C@@H](C)C(=O)N[C@@H](CC(C)C)C(=O)N[C@@H](CCCNC(=N)N)C(=O)N[C@]1(C)CCCCCCC=CCCC[C@@](C)(C(=O)N[C@@H](Cc2ccc(O)cc2)C(=O)N[C@@H](Cc2ccc(O)cc2)C(=O)N[C@@H](C)C(N)=O)NC(=O)[C@H](CC(N)=O)NC(=O)[C@H](CCc2ccccc2)NC(=O)[C@H](C)NC(=O)[C@H](CC(=O)O)NC(=O)CNC(=O)[C@H]([C@@H](C)CC)NC1=O)[C@@H](C)CC) [SEQ ID NO: 1743]
11.6	37.9	75.8	Ac-IWIALALR[R8]IGDAFN[S5]YYA-NH2 (staple 9-16; SMILES CC[C@H](C)[C@H](NC(C)=O)C(=O)N[C@@H](Cc1c[nH]c2ccccc12)C(=O)N[C@H](C(=O)N[C@@H](C)C(=O)N[C@@H](CC(C)C)C(=O)N[C@@H](C)C(=O)N[C@@H](CC(C)C)C(=O)N[C@@H](CCCNC(=N)N)C(=O)N[C@]1(C)CCCCCCC=CCCC[C@@](C)(C(=O)N[C@@H](Cc2ccc(O)cc2)C(=O)N[C@@H](Cc2ccc(O)cc2)C(=O)N[C@@H](C)C(N)=O)NC(=O)[C@H](CC(N)=O)NC(=O)[C@H](Cc2ccccc2)NC(=O)[C@H](C)NC(=O)[C@H](CC(=O)O)NC(=O)CNC(=O)[C@H]([C@@H](C)CC)NC1=O)[C@@H](C)CC) [SEQ ID NO: 1736]
3.6	67.8	117	Ac-IWISAALR[R8]IGDAFN[S5]YYA-NH2 (staple 9-16; SMILES CC[C@H](C)[C@H](NC(C)=O)C(=O)N[C@@H](Cc1c[nH]c2ccccc12)C(=O)N[C@H](C(=O)N[C@@H](CO)C(=O)N[C@@H](C)C(=O)N[C@@H](C)C(=O)N[C@@H](CC(C)C)C(=O)N[C@@H](CCCNC(=N)N)C(=O)N[C@]1(C)CCCCCCC=CCCC[C@@](C)(C(=O)N[C@@H](Cc2ccc(O)cc2)C(=O)N[C@@H](Cc2ccc(O)cc2)C(=O)N[C@@H](C)C(N)=O)NC(=O)[C@H](CC(N)=O)NC(=O)[C@H](Cc2ccccc2)NC(=O)[C@H](C)NC(=O)[C@H](CC(=O)O)NC(=O)CNC(=O)[C@H]([C@@H](C)CC)NC1=O)[C@@H](C)CC) [SEQ ID NO: 1733]
19.7	96.2	170	Ac-IWILAALR[R8]IGDAFN[S5]YYA-NH2 (staple 9-16; SMILES CC[C@H](C)[C@H](NC(C)=O)C(=O)N[C@@H](Cc1c[nH]c2ccccc12)C(=O)N[C@H](C(=O)N[C@@H](CC(C)C)C(=O)N[C@@H](C)C(=O)N[C@@H](C)C(=O)N[C@@H](CC(C)C)C(=O)N[C@@H](CCCNC(=N)N)C(=O)N[C@]1(C)CCCCCCC=CCCC[C@@](C)(C(=O)N[C@@H](Cc2ccc(O)cc2)C(=O)N[C@@H](Cc2ccc(O)cc2)C(=O)N[C@@H](C)C(N)=O)NC(=O)[C@H](CC(N)=O)NC(=O)[C@H](Cc2ccccc2)NC(=O)[C@H](C)NC(=O)[C@H](CC(=O)O)NC(=O)CNC(=O)[C@H]([C@@H](C)CC)NC1=O)[C@@H](C)CC) [SEQ ID NO: 1734]
17.2	110	125	Ac-IWIFAALR[R8]IGDAFN[S5]YYA-NH2 (staple 9-16; SMILES CC[C@H](C)[C@H](NC(C)=O)C(=O)N[C@@H](Cc1c[nH]c2ccccc12)C(=O)N[C@H](C(=O)N[C@@H](Cc1ccccc1)C(=O)N[C@@H](C)C(=O)N[C@@H](C)C(=O)N[C@@H](CC(C)C)C(=O)N[C@@H](CCCNC(=N)N)C(=O)N[C@]1(C)CCCCCCC=CCCC[C@@](C)(C(=O)N[C@@H](Cc2ccc(O)cc2)C(=O)N[C@@H](Cc2ccc(O)cc2)C(=O)N[C@@H](C)C(N)=O)NC(=O)[C@H](CC(N)=O)NC(=O)[C@H](Cc2ccccc2)NC(=O)[C@H](C)NC(=O)[C@H](CC(=O)O)NC(=O)CNC(=O)[C@H]([C@@H](C)CC)NC1=O)[C@@H](C)CC) [SEQ ID NO: 1735]
